{"source": "patent US20090304686A1", "about": "“INTERFERING IN ACTIVATION OF AN IMMUNE CELL BY INFLUENCING INTERACTION OF LAIR AND COLLAGEN” (UNIVERSOTAIR MEDISCH CENTRUM UTRECHT, priority 2006, published 2009)", "key": {"[1]": {"molecular_target": "collagen I (purified, Sigma; acid-soluble human collagen type I in BIAcore) (human) (UniProt P02452)"}, "[2]": {"molecular_target": "collagen III (purified, Sigma; acid-soluble human collagen type III in BIAcore) (human) (UniProt P02461)", "sequence (P02461 154-1221)": "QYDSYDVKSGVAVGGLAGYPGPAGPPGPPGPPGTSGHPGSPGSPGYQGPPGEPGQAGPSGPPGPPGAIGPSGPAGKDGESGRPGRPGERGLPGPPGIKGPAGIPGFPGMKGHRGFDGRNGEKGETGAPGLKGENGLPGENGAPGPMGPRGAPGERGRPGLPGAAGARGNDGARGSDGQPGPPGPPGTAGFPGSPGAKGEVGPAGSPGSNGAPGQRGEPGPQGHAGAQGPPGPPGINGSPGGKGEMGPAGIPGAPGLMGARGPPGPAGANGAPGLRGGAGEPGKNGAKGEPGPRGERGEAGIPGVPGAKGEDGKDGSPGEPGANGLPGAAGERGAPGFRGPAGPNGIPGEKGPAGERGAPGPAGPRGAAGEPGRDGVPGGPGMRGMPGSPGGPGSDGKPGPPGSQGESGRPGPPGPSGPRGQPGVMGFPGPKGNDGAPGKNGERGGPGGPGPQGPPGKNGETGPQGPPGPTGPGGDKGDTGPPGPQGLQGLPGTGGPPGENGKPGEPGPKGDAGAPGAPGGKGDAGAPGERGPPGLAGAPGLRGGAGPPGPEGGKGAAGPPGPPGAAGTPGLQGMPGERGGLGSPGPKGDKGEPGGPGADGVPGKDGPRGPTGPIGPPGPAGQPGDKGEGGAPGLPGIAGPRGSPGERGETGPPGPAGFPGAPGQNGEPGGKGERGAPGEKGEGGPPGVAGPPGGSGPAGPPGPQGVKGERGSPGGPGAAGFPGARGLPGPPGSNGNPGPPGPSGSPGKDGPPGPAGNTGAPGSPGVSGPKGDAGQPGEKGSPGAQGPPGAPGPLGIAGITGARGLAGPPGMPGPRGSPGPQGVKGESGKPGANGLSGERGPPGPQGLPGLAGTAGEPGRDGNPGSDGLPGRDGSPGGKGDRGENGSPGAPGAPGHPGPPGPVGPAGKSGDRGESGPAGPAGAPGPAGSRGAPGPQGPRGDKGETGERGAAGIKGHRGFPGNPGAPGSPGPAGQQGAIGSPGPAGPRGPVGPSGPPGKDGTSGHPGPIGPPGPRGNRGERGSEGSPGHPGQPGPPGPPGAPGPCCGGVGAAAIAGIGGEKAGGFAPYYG"}, "[3]": {"molecular_target": "collagen III (purified, Sigma; acid-soluble human collagen type III in BIAcore) (human) (UniProt P02461)", "test": "SPR (BIAcore), equilibrium binding to immobilised collagen III"}, "[4]": {"molecular_target": "collagen I (purified, Sigma; acid-soluble human collagen type I in BIAcore) (human) (UniProt P02452)", "test": "SPR (BIAcore), biphasic dissociation from collagen I, component Koff1"}, "[5]": {"molecular_target": "collagen I (purified, Sigma; acid-soluble human collagen type I in BIAcore) (human) (UniProt P02452)", "test": "SPR (BIAcore), biphasic dissociation from collagen I, component Koff2"}, "[6]": {"molecular_target": "collagen III (purified, Sigma; acid-soluble human collagen type III in BIAcore) (human) (UniProt P02461)", "test": "BIAcore, equilibrium binding to immobilized human collagen III"}, "[7]": {"molecular_target": "collagen III (purified, Sigma; acid-soluble human collagen type III in BIAcore) (human) (UniProt P02461)", "test": "SPR (BIAcore), biphasic dissociation from collagen III, component Koff1"}, "[8]": {"molecular_target": "collagen I (purified, Sigma; acid-soluble human collagen type I in BIAcore) (human) (UniProt P02452)", "test": "BIAcore, equilibrium binding to immobilized human collagen I"}, "[9]": {"molecular_target": "collagen III (purified, Sigma; acid-soluble human collagen type III in BIAcore) (human) (UniProt P02461)", "test": "SPR (BIAcore), biphasic dissociation from collagen III, component Koff2"}, "[10]": {"molecular_target": "collagen I (purified, Sigma; acid-soluble human collagen type I in BIAcore) (human) (UniProt P02452)", "test": "SPR (BIAcore), equilibrium binding to immobilised collagen I"}, "[11]": {"molecular_target": "hLAIR-1-CD3ζ chimera on 2B4 NFAT-GFP reporter cells (human) (UniProt Q6GTX8)", "sequence (Q6GTX8 22-165, change not shown)": "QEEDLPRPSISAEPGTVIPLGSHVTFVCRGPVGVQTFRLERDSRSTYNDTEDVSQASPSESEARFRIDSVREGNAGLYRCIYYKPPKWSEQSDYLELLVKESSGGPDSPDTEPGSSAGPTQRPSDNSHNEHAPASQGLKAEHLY"}, "[12]": {"molecular_target": "hLAIR-1-CD3ζ chimera on 2B4 NFAT-GFP reporter cells (human) (UniProt Q6GTX8)", "remark": "listed apart in the source"}}, "note": "pKd: −log10 of the molar value.", "data": [{"substance": "Control IgG (Fc fusion)", "values": [{"measurement": "percentage of GFP-positive hLAIR-1-CD3ζ reporter cells on Collagen I pre-incubated with Control IgG (55.0 without block)", "setting": "[1]", "value": 50.3, "unit": "%"}, {"measurement": "percentage of GFP-positive hLAIR-1-CD3ζ reporter cells on Collagen III pre-incubated with Control IgG (45.3 without block)", "setting": "[2]", "value": 42.8, "unit": "%"}]}, {"substance": "LAIR-2-IgG (human LAIR-2 fused to the Fc region of human IgG1) (from UniProt Q6ISS4 22-152) (Fc fusion)", "values": [{"measurement": "Bmax (mol/mol Col III)", "setting": "[3]", "value": 10.7}, {"measurement": "koff", "setting": "[4]", "value": 0.00083, "unit": "s⁻¹"}, {"measurement": "koff", "setting": "[5]", "value": 0.0073, "unit": "s⁻¹"}, {"measurement": "pKd", "setting": "[6]", "value": 7.38}, {"measurement": "koff", "setting": "[7]", "value": 0.0005, "unit": "s⁻¹"}, {"measurement": "pKd", "setting": "[8]", "value": 7.46}, {"measurement": "koff", "setting": "[9]", "value": 0.0046, "unit": "s⁻¹"}, {"measurement": "Bmax (mol/mol Col I)", "setting": "[10]", "value": 10.4}, {"measurement": "percentage of GFP-positive hLAIR-1-CD3ζ reporter cells on Collagen I pre-incubated with LAIR-2-IgG (55.0 without block)", "setting": "[1]", "value": 0.5, "unit": "%"}, {"measurement": "percentage of GFP-positive hLAIR-1-CD3ζ reporter cells on Collagen III pre-incubated with LAIR-2-IgG (45.3 without block)", "setting": "[2]", "value": 8.4, "unit": "%"}]}, {"substance": "collagen I (purified, Sigma; acid-soluble human collagen type I in BIAcore) (from UniProt P02452 162-1218; P08123 80-1119) (ligand)", "values": [{"measurement": "percentage of GFP-positive reporter cells on coated Col I (parental cells 0.3)", "setting": "[11]", "value": 33.8, "unit": "%"}, {"measurement": "percentage of GFP-positive reporter cells on Collagen I without block (parental cells 0.2)", "setting": "[12]", "value": 55, "unit": "%"}]}]}
